Assay results: patent US20240287172A1 (SCIRHOM, published 2024)
Changes are numbered by the printed parent chain.

T1: hiR2-FL-D535-T7 (deletion of D535) (human, UniProt Q6PJF5 1-856)
T1 construct: single amino acid deletion
T1 sequence: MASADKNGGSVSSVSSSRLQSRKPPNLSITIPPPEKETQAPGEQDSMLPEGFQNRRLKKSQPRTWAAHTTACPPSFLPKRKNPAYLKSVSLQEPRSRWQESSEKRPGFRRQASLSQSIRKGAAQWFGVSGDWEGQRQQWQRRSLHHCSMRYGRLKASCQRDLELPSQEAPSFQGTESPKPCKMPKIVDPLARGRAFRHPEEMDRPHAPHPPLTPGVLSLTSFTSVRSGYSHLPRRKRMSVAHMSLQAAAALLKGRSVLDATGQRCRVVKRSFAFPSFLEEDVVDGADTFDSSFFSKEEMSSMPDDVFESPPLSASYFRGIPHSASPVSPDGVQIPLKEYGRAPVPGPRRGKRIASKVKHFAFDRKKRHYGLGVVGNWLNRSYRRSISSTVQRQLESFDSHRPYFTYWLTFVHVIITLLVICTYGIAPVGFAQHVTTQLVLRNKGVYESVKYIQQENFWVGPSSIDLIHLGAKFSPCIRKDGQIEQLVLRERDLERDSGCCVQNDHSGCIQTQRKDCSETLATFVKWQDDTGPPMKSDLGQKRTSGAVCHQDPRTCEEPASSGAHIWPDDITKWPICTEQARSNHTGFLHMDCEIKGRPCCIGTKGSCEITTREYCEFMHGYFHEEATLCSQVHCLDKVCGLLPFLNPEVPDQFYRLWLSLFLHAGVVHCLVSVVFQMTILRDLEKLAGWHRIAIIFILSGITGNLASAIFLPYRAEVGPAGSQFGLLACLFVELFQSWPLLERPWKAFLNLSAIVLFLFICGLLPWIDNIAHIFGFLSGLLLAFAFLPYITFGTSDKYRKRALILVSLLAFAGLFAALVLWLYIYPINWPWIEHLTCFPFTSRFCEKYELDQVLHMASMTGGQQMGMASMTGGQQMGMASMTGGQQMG

B1: antibody 16 (antibody, V domains shown)
VH: QVTLKESGPGILQPSQTLSLTCSFSGFSLSTFALGVGWIRQPSGRGLEWLAHIWWDDDKYYNPALKSRLTISKDTSKNHVFLKIANVDTADTATYYCARITTYYYGMDYWGQGTSVTVSS
VL: DIVLSQSPATLSVTPGDSVSLFCRASQSIGNHLHWYQQESHASPRLLIKYASQSISGIPSRFSGSGSGTDFTLSINSVETEDFGMYFCQQSYNWPLTFGAGTKLELK
notes: mouse IgG, kappa light chain; also called clone #16; purified antibody 16
B2: antibody 5 (antibody, V domains shown)
VH: QVTLKESGPGILQPSQTLSLTCSFSGFSLSTFGMGVGWIRQPSGKGLEWLAHIWWDDEKYYNSALKSRLTISKATSKNQAFLKIANVDTADTATYYCARISNYGSNYWYFNVWGTGTTVTVSS
VL: QVVLTQSPALMSASPGEKVTMTCSAGSSVSCMYWYQQKPGSSPRVLIYDTSNLASGVPARFTGSGSGTSYSLTISRMEAEDAASYYCQQWNSYPLTFGAGTKLELK
notes: mouse IgG, kappa light chain; also called clone #5; purified antibody 5
B3: antibody 22 (antibody, V domains shown)
VH: B2 VH with A80V
VL: B2 VL with C31Y, S84T
notes: mouse IgG, kappa light chain; also called clone #22; purified antibody 22
B4: antibody 42 (antibody, V domains shown)
VH: B2 VH with F24L, M34R, S63P, A74D, A80V, K83R, S101Q, N111D
VL: LIVLTQSPAIMSASPGEKVTMTCGATSRISYMFWYQQKPGSSPRVLIYDTSNLASGVPVRFSGSGSGTSYSLTISRVEAEDVATYYCQQWNSYPLTFGAGTKLELK
notes: mouse IgG, kappa light chain; also called clone #42; purified antibody 42
B5: antibody 3 (antibody, V domains shown)
VH: QVTLKESGPGILQPSQTLSLTCSFSGFSLTTFAMGIGWVRQPSGKGLEWLAHIWWDGEKYNNPVLKSRLTISKDTSKNQVFLRIANVDTPDTATYYCARISSIYYIIDNWGQGTSVTVSS
VL: B1 VL with S5T, D17H, F22S, G30S, H32N, Q38K, E39K, A42E, A51V
notes: mouse IgG, kappa light chain; also called clone #3; purified antibody 3
B6: antibody 34 (antibody, V domains shown)
VH: QVTLKESGPGILQPSQTLSLTCSFSGFSLSTFSLGVGWIRQSSGKGLEWLAHIWWDDEKYYNPALKSRLTISKDTSKNQVFLKIANVDAADTATYYCARAYYSKSYYALDYWGQGTSVTVSS
VL: DIQMTQSPSSLSASLGERVSLTCRASQEISGYLSWLQQKPDGTIKRLIYAASTLDSGVPKRFSGSRSGSDYSLAISSLESEDFADYYCLQYANFPFTFGSGTKLEIK
notes: mouse IgG, kappa light chain; also called clone #34; purified antibody 34
B7: antibody 43 (antibody, V domains shown)
VH: B2 VH with T3A, P42S, H52N, E58D, S63P, A74D, T75A, S101G, N111D
VL: B4 VL with L1Q, K18R, G24S, T26N, F33Y, V45L, V77M, V82A, Y86N, N91S
notes: mouse IgG, kappa light chain; also called clone #43; purified antibody 43
B8: antibody 44 (antibody, V domains shown)
VH: B2 VH with G44E, E58D, S63P, A74D, A80I, A85T, D91E, A98S, S101G, N111D
VL: QIVLTQSPAVMSASPGEKVTMTCTASSSVYYMYWYQQTPGSSPRLLIYDTSNLASGVPVRFSGSGSGTSYSLTISRMEAEDAATYYCQQWNTYPLTFGAGTKLELK
notes: mouse IgG, kappa light chain; also called clone #44; purified antibody 44

Molecular target: T1, hiR2-FL-D535-T7 (deletion of D535)
Test: FACS, MEF-DKO cells, 3 µg/ml

| Binder | loss of binding vs wild type |
| --- | --- |
| B1 | ≥ 95% |
| B2 | ≥ 95% |
| B3 | ≥ 95% |
| B4 | ≥ 95% |
| B5 | ≥ 95% |
| B6 | ≥ 95% |
| B7 | ≥ 95% |
| B8 | ≥ 95% |
